# IntAct's records for PubMed 9845372
# B1: Double-strand break repair protein MRE11 (Saccharomyces cerevisiae), P32829 (parent)
# chain: MDYPDPDTIRILITTDNHVGYNENDPITGDDSWKTFHEVMMLAKNNNVDMVVQSGDLFHVNKPSKKSLYQVLKTLRLCCMGDKPCELELLSDPSQVFHYDEFTNVNYEDPNFNISIPVFGISGNHDDASGDSLLCPMDILHATGLINHFGKVIESDKIKVVPLLFQKGSTKLALYGLAAVRDERLFRTFKDGGVTFEVPTMREGEWFNLMCVHQNHTGHTNTAFLPEQFLPDFLDMVIWGHEHECIPNLVHNPIKNFDVLQPGSSVATSLCEAEAQPKYVFILDIKYGEAPKMTPIPLETIRTFKMKSISLQDVPHLRPHDKDATSKYLIEQVEEMIRDANEETKQKLADDGEGDMVAELPKPLIRLRVDYSAPSNTQSPIDYQVENPRRFSNRFVGRVANGNNVVQFYKKRSPVTRSKKSGINGTSISDRDVEKLFSESGGELEVQTLVNDLLNKMQLSLLPEVGLNEAVKKFVDKDEKTALKEFISHEISNEVGILSTNEEFLRTDDAEEMKALIKQVKRANSVRPTPPKENDETNFAFNGNGLDSFRSSNREVRTGSPDITQSHVDNESRITHISQAESSKPTSKPKRVRTATKKKIPAFSDSTVISDAENELGDNNDAQDDVDIDENDIIMVSTDEEDASYGLLNGRKTKTKTRPAASTKTASRRGKGRASRTPKTDILGSLLAKKRK
# partner: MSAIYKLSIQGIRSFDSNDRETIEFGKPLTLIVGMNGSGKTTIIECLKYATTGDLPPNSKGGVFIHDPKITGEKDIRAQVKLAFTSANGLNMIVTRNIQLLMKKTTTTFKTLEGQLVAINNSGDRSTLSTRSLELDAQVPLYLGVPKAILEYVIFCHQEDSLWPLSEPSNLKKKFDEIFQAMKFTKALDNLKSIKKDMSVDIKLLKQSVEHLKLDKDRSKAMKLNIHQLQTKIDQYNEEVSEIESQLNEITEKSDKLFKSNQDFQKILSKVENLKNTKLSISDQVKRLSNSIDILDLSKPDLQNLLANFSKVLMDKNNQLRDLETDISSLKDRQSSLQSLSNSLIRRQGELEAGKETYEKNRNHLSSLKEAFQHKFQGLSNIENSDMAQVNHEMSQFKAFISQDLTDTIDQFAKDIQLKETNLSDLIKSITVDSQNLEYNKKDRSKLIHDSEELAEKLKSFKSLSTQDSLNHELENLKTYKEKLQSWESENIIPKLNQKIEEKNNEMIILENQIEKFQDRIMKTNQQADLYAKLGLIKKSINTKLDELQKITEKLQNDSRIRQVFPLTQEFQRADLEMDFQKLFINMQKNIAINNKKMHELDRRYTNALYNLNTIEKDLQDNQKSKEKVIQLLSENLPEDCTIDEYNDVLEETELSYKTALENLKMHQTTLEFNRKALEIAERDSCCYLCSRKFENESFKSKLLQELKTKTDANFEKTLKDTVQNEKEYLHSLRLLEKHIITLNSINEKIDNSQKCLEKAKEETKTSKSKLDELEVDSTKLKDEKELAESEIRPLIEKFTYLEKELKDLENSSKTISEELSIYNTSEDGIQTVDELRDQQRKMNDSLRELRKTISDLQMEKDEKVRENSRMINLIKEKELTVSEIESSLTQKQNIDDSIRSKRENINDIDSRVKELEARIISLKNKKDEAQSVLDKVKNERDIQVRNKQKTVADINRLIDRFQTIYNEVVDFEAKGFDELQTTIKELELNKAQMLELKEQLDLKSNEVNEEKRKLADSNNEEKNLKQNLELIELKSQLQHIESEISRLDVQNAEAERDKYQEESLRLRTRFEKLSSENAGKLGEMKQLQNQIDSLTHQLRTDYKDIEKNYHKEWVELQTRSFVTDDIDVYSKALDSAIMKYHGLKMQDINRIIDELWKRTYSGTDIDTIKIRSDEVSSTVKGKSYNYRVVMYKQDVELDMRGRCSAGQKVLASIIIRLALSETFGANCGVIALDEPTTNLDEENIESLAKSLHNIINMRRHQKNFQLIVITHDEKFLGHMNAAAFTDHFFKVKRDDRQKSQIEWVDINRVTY
# Variants of: B1
# Conditions: with rad50_yeast RAD50, P12753
row,effect of a mutation on the interaction,Variant
1,disrupting interaction,H213Y;L225I
